From article PMC7818228, “Laser‐facilitated epicutaneous immunotherapy with hypoallergenic beta‐glucan neoglycoconjugates suppresses lung inflammation and avoids local side effects in a mouse model of allergic asthma” (Allergy, 2020) come the findings set out here.

Test in all cases: MST; in solution; Monolith NT.115 RED; Hill fit model for multiple binding; apparent dissociation constants (Kdapp); three independent binding experiments
The target in assay [1] is soluble murine Fc-Dectin-1a receptor (mouse) (UniProt Q6QLQ4).
Sequence of soluble murine Fc-Dectin-1a receptor (mouse) (Q6QLQ4 71-244): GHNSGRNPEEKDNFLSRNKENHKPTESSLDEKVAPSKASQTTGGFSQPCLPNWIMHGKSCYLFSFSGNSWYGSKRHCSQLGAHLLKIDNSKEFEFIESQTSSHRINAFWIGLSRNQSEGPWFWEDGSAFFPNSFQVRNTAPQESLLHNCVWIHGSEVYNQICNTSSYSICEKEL
Assay [2] concerns the target soluble receptor TLR5 (UniProt Q9JLF7).
The target of assay [3] is soluble receptor TLR5 (UniProt Q9JLF7 27-641, Supplement states soluble human TLR5 fused to an IgG1 Fc domain (Fc carrier left out; 2 copies assumed from Fc dimerisation); limits are the UniProt extracellular domain by convention; lysine/amine la). Conditions: both partners purified.
Sequence of soluble receptor TLR5 (UniProt Q9JLF7 27-641, Supplement states soluble human TLR5 fused to an IgG1 Fc domain (Fc carrier left out; 2 copies assumed from Fc dimerisation); limits are the UniProt extracellular domain by convention; lysine/amine la) (Q9JLF7 27-641): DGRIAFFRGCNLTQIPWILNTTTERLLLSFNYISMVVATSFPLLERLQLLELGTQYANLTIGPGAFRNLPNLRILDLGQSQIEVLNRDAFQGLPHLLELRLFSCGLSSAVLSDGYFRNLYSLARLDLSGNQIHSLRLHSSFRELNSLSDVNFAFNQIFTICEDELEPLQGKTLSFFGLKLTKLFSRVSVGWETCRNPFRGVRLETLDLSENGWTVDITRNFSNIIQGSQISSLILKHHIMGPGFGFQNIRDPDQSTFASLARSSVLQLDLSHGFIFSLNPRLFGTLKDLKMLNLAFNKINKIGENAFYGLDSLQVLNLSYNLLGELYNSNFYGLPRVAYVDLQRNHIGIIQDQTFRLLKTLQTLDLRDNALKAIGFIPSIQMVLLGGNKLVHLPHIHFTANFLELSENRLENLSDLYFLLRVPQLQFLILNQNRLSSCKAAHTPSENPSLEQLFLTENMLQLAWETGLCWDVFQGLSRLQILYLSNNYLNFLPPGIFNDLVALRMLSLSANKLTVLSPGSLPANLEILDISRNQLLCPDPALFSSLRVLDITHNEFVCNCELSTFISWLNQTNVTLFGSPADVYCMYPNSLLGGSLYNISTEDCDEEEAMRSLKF

Sequence of soluble receptor TLR5 (UniProt Q9JLF7) (Q9JLF7 27-641): as above

As for “laminarin-ovalbumin neoglycoconjugate (LamOVA) (from UniProt P01012 1-386)”, in assay [1], the Kd came out at 170 nM; the Kdapp counted on the laminarin concentration (carbohydrate to protein ratio 0.6) is 0.99 µM; the Kdapp counted on the laminarin concentration (carbohydrate to protein ratio 2.5, anthrone method) is 4.22 µM. Further, the Kdapp (concentration basis not stated; compared with the 0.99 µM for Dectin-1) with soluble receptor TLR5 [2] came out at 6 µM.

B1: ovalbumin (EndoFit Ovalbumin, endotoxin-free) (natural protein, UniProt P01012 1-386, looked up)
chain: MGSIGAASMEFCFDVFKELKVHHANENIFYCPIAIMSALAMVYLGAKDSTRTQINKVVRFDKLPGFGDSIEAQCGTSVNVHSSLRDILNQITKPNDVYSFSLASRLYAEERYPILPEYLQCVKELYRGGLEPINFQTAADQARELINSWVESQTNGIIRNVLQPSSVDSQTAMVLVNAIVFKGLWEKAFKDEDTQAMPFRVTEQESKPVQMMYQIGLFRVASMASEKMKILELPFASGTMSMLVLLPDEVSGLEQLESIINFEKLTEWTSSNVMEERKIKVYLPRMKMEEKYNLTSVLMAMGITDVFSSSANLSGISSAESLKISQAVHAAHAEINEAGREVVGSAEAGVDAASVSEEFRADHPFLFCIKHIATNAVLFFGRCVSP
notes: ovalbumin (OVA), endotoxin-free commercial preparation; crystal structure 1OVA named for it; Commercial ovalbumin; also called unconjugated OVA; soluble OVA; source: bought: InvivoGen (EndoFit Ovalbumin)
As to B1, the Kd in assay [1] was 5330 nM; with soluble receptor TLR5 [3], 800 ± 300 nM.
